Our source for the Kd values is publication PMC11251522, “Transcription factors ERα and Sox2 have differing multiphasic DNA- and RNA-binding mechanisms”.

The target of data set [1] is T1, Sox2 HMG (human, UniProt P48431 40-123). The data set can be described thus: fluorescence anisotropy; apparent; Hill n 0.68; FP at 4°C; ERα: 20 mM Tris pH 7.5 (at 25°C), 100 mM NaCl, 5% glycerol, 0.01% IGEPAL; Sox2: 10 mM Tris pH 7.5 (at 25°C), 135 mM KCl, 15 mM NaCl, 0.1 mg/mL BSA, 4% Ficoll, 0.05% NP-40, 1 mM DTT; SPR: ERα buffer, 25°C. Conditions: protein: recombinant; tags: N-terminal His8-MBP, 3C-cleaved. (In general: Fluorescence polarisation rises when a labelled molecule tumbles more slowly, as on binding a larger partner.)

Data set [2] concerns the target T1, Sox2 HMG. Kind of data set: fluorescence anisotropy; second (low-affinity) transition; FP at 4°C; ERα: 20 mM Tris pH 7.5 (at 25°C), 100 mM NaCl, 5% glycerol, 0.01% IGEPAL; Sox2: 10 mM Tris pH 7.5 (at 25°C), 135 mM KCl, 15 mM NaCl, 0.1 mg/mL BSA, 4% Ficoll, 0.05% NP-40, 1 mM DTT; SPR: ERα buffer, 25°C. As to conditions: protein: recombinant; tags: N-terminal His8-MBP, 3C-cleaved; G-quadruplex.

The target in data set [3] is T1, Sox2 HMG. Kind of data set: fluorescence anisotropy; printed ≤1; first (high-affinity) transition, 44% of signal; FP at 4°C; ERα: 20 mM Tris pH 7.5 (at 25°C), 100 mM NaCl, 5% glycerol, 0.01% IGEPAL; Sox2: 10 mM Tris pH 7.5 (at 25°C), 135 mM KCl, 15 mM NaCl, 0.1 mg/mL BSA, 4% Ficoll, 0.05% NP-40, 1 mM DTT; SPR: ERα buffer, 25°C. As to conditions: protein: recombinant; tags: N-terminal His8-MBP, 3C-cleaved; G-quadruplex.

T1 sequence (P48431 40-123): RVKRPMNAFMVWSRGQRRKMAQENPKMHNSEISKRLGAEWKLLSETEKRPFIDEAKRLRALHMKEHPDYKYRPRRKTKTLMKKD

As to AAAAAAAAAAAAAAAAAAAA (ssRNA) [poly(A) RNA (rA20)], the Kd in the data set with Sox2 HMG [1] stood at 40 ± 13 nM.

In the case of GGGAAGGGAAGGGAAGGGAA (structured_RNA) [G4 RNA (rG4), (G3A2)4], the Kd with Sox2 HMG [2] is 110 ± 32 nM; with Sox2 HMG [3], less than 1 nM.
